Test results as given in the DeepSol protein solubility set.

Assay: soluble on expression in E. coli; label from the status in PepcDB or PDB records

Sequence	soluble on expression in E. coli
MRGSHHHHHHTDPALRAQTQVLFEHPLNEKMRTWLRIEFLIQQLTVNLPIVDHAGALHFFRNVSELLDVFERGEVRTELLKELDRQQRKLQTWIGVPGVDQSRIEALIQQLKAAGSVLISAPRIGQFLREDRLIALVRQRLSIPGGCCSFDLPTLHIWLHLPQAQRDSQVETWIASLNPLTQALTMVLDLIRQSAPFRKQTSLNGFYQDNGGDADLLRLNLSLDSQLYPQISGHKSRFAIRFMPLDTENGQVPERLDFELACCGLCGR	soluble
MRIAIDFDGTIVEHRYPRIGKEIPFAIATLKQLQTERHLLVLWTVREGKLLDEAVDFCRKRGLEFYAVNANHPEEEVRNDMTSPCRKVVADLYIDDLNVGKLPDWGAIYEMIHNRWSYERYLNEIHGFEKQKKISIWKRIFR	not soluble
MRIAIEKIIGLLKNQSSKESNVKIHRLAYITNSKFDGNNYIDRWCKIRNSHIGEYSYIGFGSDFNNVEVGRYCSISSDVKIGLGKHPTHFFSSSPIFYSNNNPFNIKQKFIDFNDQPSRTTIKNDVWIGANVIIMDGLTINTGAVIAAGSVVTKNVGAYEVVGGVPAKVIKKRFDNKTIEKLLESKWWEKTPDKLKGFSVEYLNKKDT	not soluble
MRIHAFHHLYQYRLERSTKPFLARGGKIKRCLYCLVELTHCLCAHQPDIESQVAVLLIVSENEVFKPSNTGRLIADTVKETYVYQWSRTEPNPEMLALLSNPAYYPVLIFPAETEEDKTRVLSPIPTEFAGKKPLLVLIDGSWREAKRIFRKSPYLASLPLVSVEPERLSQYIMRKSENEQHLATAEVASLVLDMFGDRHSASTLSLWFEAFKETYLTCKSRNKPSITKPALQRWIAHQQNANCLLEHHHHHH	not soluble
MRIHDIDPDNRPRERFLRSGKESLSPAELLALILRSGTAGLNIIDTCNKLISEHGLERLADLSIQELQKTPGIGEAKAMQIAAIFELQRRLHFARNMNLKVKGARDVFEYMKGRIPDETKEHLFVLFLSTKNQILRHETITIGTLTASLIHPREIFKAAIRESAHSIILVHNHPSGDVQPSNADKQVTSILKKAGDLLQIELLDHVIVGNNDWFSFRDHALL	not soluble
MRIRIAHSPDSDDAFMFYPLVKGLIDTEGLEIEHVLADIETLNREALKGTYEVSAISFHAYPYVADKYAVLPSGGSIGEGYGPIVVAREELGTLKGKKIAVPGELTTAFLTLKLYEPDFEHVVIPFDRIIQAVLEGKVDAGLVIHEGQLSYKDYGLKKIVDLGEWWKEKYGLPLPLGCNVVRKDLGREVVKKIERLMRESVEYALKERKRALEYAINYARDLSEDLERTQKFVSMYVNERTVDYGEDGREAVRLLLRLGKERGIIKAEIPEKIFSDELF	soluble
MRITIVTIFPEMVEVIKKYGVIARAVERGIVEINVENLRDYTTDRHRTVDDYQYGGGYGMVMKPEPFFRFYESYVEKYGKPYVILTSPQGRIFNYKIAEELSKKDDIVIFCGRYEGIDERVMSIVDDEISIGDYILTGGELPAMVITDAVVRLVPGVVERESVERESFHQGLLDHPVYTRPYEYKGMKVPDVLLSGDHEKVELWRRKESIKKTLAKRPDLFLAKELDEMDKLAIIELFRELMEKC	soluble
MRIVQATLEHLDLLAPLFVKYREFYGMLSYPESSRKFLEKRLRRKESVIYLALADEEDRLLGFCQLYPSFSSLSLKRVWILNDIYVAEEARRQLVADHLLQHAKQMARETHAVRMRVSTSVDNEVAQKVYESIGFREDQEFKNYTLPISDELS	soluble
MRIVVTRPQRSGERTAAKLEALGHAPVLLPLFHPIHHGERATSALSDPAGAIAVTSAEALRALATCEEQLAPYLSKPLFAVGGATAEAAQETGFEQIFTASGDALGLTVLVKQHRAFLTEEEPLLYLAGRPRGSVFEEGLAAAGIPFRTVDCYEMLPSDISENTLETTLLDTTADMVLLYSSEAARAFFHHVSADKYVTALAATKFICISRNVLFLVPEIFRANAKAAEEPSEAAMFELLHHNSGT	not soluble
MRKDVKIYLNHILESIELIEEYTKDKTEDDFFTSKFLQDAVIRRIEIIGEAIKNLPMEFREKYNHIPWKEFAEMRDILIRKYFGVDLGLTWEVVKKDIPKLKEEILKIMEELDKNKNNKYNVFAYGELMKKERLLELINRVPKMIEGRVYGYEKFFDETIGYYGARKKEGSYIDGIILLDITDKELGIFDDYEDLDVYYIREKTTAVSEDGRKYDVYIYLRK	soluble
MRKGLLAALLLLSACQVLEGSGYRVTEVQFLFPEATERWTYFYGEPRVVELDGRPLRLEAPQGENLWAFPGALWVEGSPVLRATYPSRPPVAEAVRGVSGSLLQVRAQAPLLATWLYDGVGWVRLTGSLREGEERTLVQPANYQTPRLFPLTEEESAVVLREVLARRGGKPVVVFELREPPLPPLRLSPAPDAYRIARLQVQYGLRLEPVMPPAPIFRVLGQGTQAAYQEEAPLALLANDPTSFNRLWALAVGNQLPRPAAPAVDFRNRSVAAFFWGLKPTGGYGLKVVGVTYAGERARVVLSLGAPKPGAITTQALTSPYVVLELQKVRRVVFADTSGKVLAEARD	soluble
MRKIILASGSPRRKELLELAGVPFEIIVSEVEETIGAYSSPSDIVMSLALQKASAVAENNSDHIVLGADTIVTYESRILGKPSNKAEAKEMLQLLSGKTHEVYTGVAIIAKDKTVTFYERTEVTFWELTEEEIDAYVASKEPLDKAGSYGIQGKGSIFVQHIQGDYYSVVGLPISRLVRELKQFNIDVTHA	not soluble
MRKILITGGAGFIGSALVRYIINETSDAVVVVDKLTYAGNLMSLAPVAQSERFAFEKVDICDRAELARVFTEHQPDCVMHLAAESHVDRSIDGPAAFIETNIVGTYTLLEAARAYWNALTEDKKSAFRFHHISTDEVYGDLHSTDDFFTETTPYAPSSPYSASKASSDHLVRAWLRTYGLPTLITNCSNNYGPYHFPEKLIPLMILNALAGKSLPVYGNGQQIRDWLYVEDHARALYCVATTGKVGETYNIGGHNERKNLDVVETICELLEELAPNKPHGVAHYRDLITFVADRPGHDLRYAIDASKIARELGCVPQETFESGMRKTVQWYLANESWWKQVQDGSYQGERLGLKG	soluble
MRKIVLASVVTSLVGCSMGHRDPVEAKQALNQAINETNSRQIDQLPPSVEADLMPDMDTLTASEPKTLQRFRIQAEDVEAKAFFASLVQGTEYSAAIHPAVTGRITLNLTDVTLDEALGVVRDLYGFEVVKEGKVIQVYPAGLRTVTIPVDYLQFKRTGRSLTSITTGTITNTDTNNSNSSSSSSSSISSNSSSDGSSSNSNSNRSDARGGTEIETTNESDFWPLLEKAVAQLLGGSGGQTVIVNPQAGVLTLRAYPDEIRQVNEFLGISQQRMHRQVILEAKILEVTLSDGYQQGINWSKAFSSNGANYKIGSGSITQDSNGNPITSVLPGLDAIGNLLGGQSNVVISSGSFDAVISFMATQGDLNVLSSPRVTASNNQKAVIKVGTDEYYVTDLSSVVGTGDNAQASPDITLTPFFSGISLDVTPQIDDQGNVLLHVHPAVIEVEQQTKKILYRSEEIELPLARSSIRESDSVIRAKDGDVVVIGGLMKSNTVDQVSKVPFLGDVPALGHLFRNTTKLTQKTELVILLKPTVVGVNTWQKELERSRSLLQEWFPDSQ	not soluble
MRKIWGILFLCLTFMLVGCGKEEKPQEAFDTYAKAWNKQKFAEMYDQLSEKAKKDISKKEFTEKYEKIYSGIEVKNLKVEAGEVKEDKKDEGPIPFKVSMDTVGGKINFGHEAKMVKEKDGDKESWKVDWTPDFIFPGMTKDSKVRMQTTEPKRGEIYDRNGKGLATNGKASEIGLIPEKLGDTAPQTKETVAKLLNMSVEEIDQKLAAKWVKPGYLVPIGILPEGATQNTYIDLPGVSTKPVNVRTYPLGEAAAHLTGYIGKVNAEDLKTLQKKGYQADDPVGKAGLEQVLEEKLRGKKGGRVFVEDAQGKEIKNLAKTDAVDGENVTLTIDSAVQEKTYNEMKGEAGSSAAINPKSGETLALVSSPAYDPNIIARGTSKAQREAWNNDPKKPMTNRFTQLSVPGSVFKPITAAIGLETKTIDPKEELKIEGLKWTKDSSWGNYYVTRVKDANPIDFDKAMKYSDNIYFAQEALKIGKDKFMSEAKKFGFDEKLPIEYGFPASKIANDGIKNDIQMADTGYGQGQVLMTPLHLALTYAPIVNDGNIPSPYIIKTDKQPKVWKENVISKGNQDILKTAMTKVINDPDGTGKIAKIDGMTLAGKTGTAELKVSKEAEGKELGWFAAFDLNSPDMVITMMIEDVKGRGGSNIPAEKVKHVFQK	not soluble
MRKKLLSIALCATMVAGIFTGCGSSSDTSKKDEGKSADGKITLNVINYHVGTDYAADYYEYLFDAFKKTEEGKNVEFKFEEIPTTDAYNQKIKLLISSGDLPDIVLNGGNNITALAAKSGKVTDITEYLDKDPEWKAMFSDQDLEFNSYEGKVYGIPVSKEISYIYYNKDLFKKAGLEAPDVAYETWDDFYKACDTLKSKNITPVSMDTADLGWLSNLWYSGLIGTAGEEGNKFMNTMYPTDYTSDLVVNATEQLQKMLKNYTTSDAAGGKYDTMATHFFNSEVAMLPNGPWMIPDFKSTDKAPEGFYDKVGIMLLPGSGMESVPTPGDMVGTKDPEKVKAAVAFLKFETTAENQLKALEMAGLQPVSSNIEVPDSLKESDPLMAEVLDIQSKAKYTYGQNQAYWYQNVIDTFSTQLPELAYGNMTAKEFCQKLTDAAKKN	not soluble
MRKPKITVIGGGTGIPVILKSLRLEDVEITAVVTVADDGGSSGELRSVMQLTPPGDLRNVLVALSDMPKFYEQIFQYRFAEGDGDFAGHPLGNLIIAGVAEMQGSTYNAMQSLTQFFHTTGKIYPSSEHPLTLHAVFKDGHEVVGESQIADYKGMIDHVYVTNTYNEETPTASRKVVDAILESDMIVLGPGSLFTSILPNLVIPEIKQALLETRAEVAYVCNIMTQRGETEHFTDADHVEVLKRHLGQDAIDTVLVNIEKVPESYMENNHFDEYLVQVEHDFSGLRKHARRVISSNFLKLEKGGAFHHGDFVVEELMNLVGTHLLEHHHHHH	not soluble
MRKTFRQPHALAAMVIAMLMAQLSGCATTSAQTSPTEFGAGLPEAEDHSESAEPQSVEAEVIDERYADVWEKIQHARTIDVHDDAEVRKQRNFFDDKQKFMTQVTQRAEPFLYYIVSQLEARNMPLELALLPIVESGYNPLAQANGPAGLWQMIPATGRNFGLTINSAYDGRKDALASTDAVLDYLQHLYNTLGNDWINAVAGYNSGELVIKAAIDRNKAKGKPTDFWSLNIPARQVQTVPKWLAFIQIIREPSHYNLKVMPIANRPFLERLPAPNGVEISQIANAAGLTKAEFKTYNPGYRQSVIPSKGKYQIALPIENIGHYQENQHKLYAQKRYDSQTYIVKSGDSLGTIAAKFDLSVKELKQANNLTSDRLKIGQELTLLTPMAANDNEPEPVKTKANTDKSSTKANASSTKATSSKSTDKPVAKAKTYKVKSGDSLDKIARKSKVKLADLMKWNQLNAKSIIKPGQELKISELEHHHHHH	soluble
MRKTKIVCTIGPASESIEKLEQLIEAGMNVARLNFSHGSHEEHGARIKNIREASKKTGKTVGILLDTKGPEIRTHDFVDGQAELVTGAEVVLSTEQVLGTAEKFSVSYAGLYDDVDPGSRILIDDGLIELEVIEKADGNIRTKVLNSGTVKNKKGVNVPNVSIKLPGITEKDVKDIIFGIEQKVDFIAASFVRKAADVLEIRELLEEHNAQYIQIVPKIENQEGIDNIDSILEVSDGLMVARGDMGVEIPPEEVPLVQKRLIKKCNVLGKPVITATQMLDSMQRNPRPTRAEASDVANAIFDGTDAIMLSGETAAGQYPVEAVTMMANIAVRVEKSLQYEDMFKKRIKEFTPTITDAISQSVAHTALALDVAAIVAPTESGYTAKMISKYRPKSPIVAVTSDEQVGRRLALVWGVQAFMAEKRAASTDEMLDTAIQTGMDAGLIGLGDTVVITAGVPVAETGTTNLMKIHVVGEEVAKGQGIGRKAAKGKVVVAKTAAEAVANVNEGDILVTTSTDKDMIPAIEKAAALVVEEGGLTSHAAVVGVSIGIPVIVGVNGVTATLKNGQEVTVDAARGIVYNGHAEVL	soluble
